Assay [1] has as its target cynomolgus monkey CD98 as used in SPR, Octet and ELISA (cynomolgus monkey) (UniProt I7GH21). In words: Biacore and Octet.
Assay [2] has as its target human CD98 as used in ELISA, BIACORE and Octet assays (human) (UniProt P08195). Kind of assay: Biacore and Octet.
UniProt P08195, sequence (P08195 206-630 limits assumed, form in doubt): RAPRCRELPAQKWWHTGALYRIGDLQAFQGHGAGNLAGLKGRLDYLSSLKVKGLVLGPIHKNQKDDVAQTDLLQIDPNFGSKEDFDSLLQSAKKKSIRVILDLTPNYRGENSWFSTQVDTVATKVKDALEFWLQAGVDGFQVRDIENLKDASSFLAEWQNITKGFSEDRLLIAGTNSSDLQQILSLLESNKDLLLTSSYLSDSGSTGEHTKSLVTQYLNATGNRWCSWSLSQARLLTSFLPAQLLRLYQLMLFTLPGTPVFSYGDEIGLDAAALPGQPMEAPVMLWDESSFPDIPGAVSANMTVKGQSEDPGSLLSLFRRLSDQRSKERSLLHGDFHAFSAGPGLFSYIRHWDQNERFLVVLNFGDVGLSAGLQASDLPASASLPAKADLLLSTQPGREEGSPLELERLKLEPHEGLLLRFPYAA

As for “humanized anti-CD98 monoclonal antibody IGN523”, the Kd in assay [1] lay within 8 to 14 nM; in assay [2], 2 to 6 nM.

The values are drawn from WO2013078377A1.
